# Assay results from the RNAGym collection of RNA variant scans (doi:10.1021/acssynbio.7b00057).
# B1: Pistol ribozyme (parent)
# chain: GGGUCGUUGUUCCAUAAUCGCGUGGAUAUGGCACGCAAGUUUCUACCGGGCACCGUAAAUGUCCGACUGGAGCCGUUCGGGCGGCUAUAAACAGACCUCAGGCCCGAAGCGUGGCGGCACCUGCCGCCGGUGGUAAAAAAGAUCGGAAGAGCACACGUCU
# Variants of: B1
# Assay: aptazyme ON/OFF ratio, guanine; higher = stronger switching; co-transcriptional cleavage with and without guanine
row,Variant,aptazyme ON/OFF ratio
1,U7A G9C U11G C12U C13G,1.36
2,U7A G9C U10A U11A,1.07
3,U8A G9C U10C U11G C13A,1.08
4,U7C U8A G9C U11A C12A C13A,1.11
5,U7G U8G U11A C12G,1.43
6,U7A U8A G9A U10A U11C C12U C13A,1.17
7,U7A U8A G9A U11C C12U,1.06
8,U7G G9A U10C U11A C12U C13G,1.05
9,U7G U8C C12G C13G,1.08
10,U7C U10A U11G C13A,1.24
11,U7G U8G G9C U11C C12G C13A,1.16
12,U10G U11C C12G C13U,1.48
13,U7C U8A G9U U10A U11C C12A C13U,1.22
14,U8A G9C U10G U11G C13G,1.16
15,U7G U10C U11A C12A C13G,1.06
16,U7C U8G U10A U11A C12G C13A,1.11
17,U7C U8A U10G U11G C12G C13U,1.25
18,U7A U8G G9A U10A U11G C12A C13G,1.37
19,U7C G9U U11C C12U C13U,1.13
20,U7G G9A U10C U11G C12U C13A,1.11
21,U10A C12A C13A,1.22
22,U7C U8A G9A U11A C12G C13G,1.19
23,U8A G9U U10A U11C C13A,1.04
24,U7C U8C G9C C12U C13G,1.11

row,Variant,aptazyme ON/OFF ratio
1,U7G U8G G9U U10A U11G C12A C13G,1.04
2,U7G U8A U10G U11A C12A C13A,1.47
3,G9A U10A U11A C13U,1.46
4,U7G U8G G9C U10C U11C C12U C13U,1.06
5,U7A G9A U10A C12A C13A,1.1
6,U8C G9A U11G C12U C13G,1.29
7,U8A G9A C12U,1.33
8,U7C U8G G9A U10C C12A C13A,1.13
9,U7A U8C G9C U10A C12A C13A,1
10,U7G U8C U10A C12U C13U,1.12
11,U7G G9C U10A C12U C13U,1.07
12,U7G U8A G9C U10G U11G C12A C13A,1.05
13,U7A U8A G9A U11C C12A,1.16
14,U7A G9A U11A C12G C13A,1.19
15,U7C U8G G9A U10G C12A C13G,1.08
16,U7G U8A G9A U11G C12G C13A,1.14
17,U7A U10A U11A C13G,1.15
18,U7C G9A U11A C13A,1.21
19,U7G U8C G9U U10G U11C C12G,1.38
20,U8G G9C U10G U11C C12A C13G,1.04
21,U7G G9C U10G U11C,1.17
22,U7A U8A U10G U11A C12U C13A,1.35
23,U7C U8G G9A C13G,1.05
24,U7G G9A U10A U11A C12A,1.1

row,Variant,aptazyme ON/OFF ratio
1,U7G G9A U10C U11A,2.37
2,U7C U10A U11A C12G,1.28
3,U7A U8A G9U U10G U11C C13A,1.06
4,U7C U8G G9U U10C U11C,1.06
5,U7A U10C C13A,1.06
6,U7G U8A G9C U10C C12G C13A,1.14
7,U7C U8C G9C U10A C12U,1.26
8,U7C G9A U10C U11A C12A C13A,1.12
9,U7A U8C U10C C12A C13U,1.26
10,U7C U8C G9U U10C,2.52
11,U7G U8G G9A U10A U11A C12U C13G,1.13
12,U8A U10C U11G C12A,1.09
13,U8C U10C U11G C12G,1.25
14,U8G U11G C13G,1.05
15,U8G G9U U11G C13A,1.06
16,U7A U8C G9U U10G C12A,1.53
17,U7C U8C G9C U10A U11G C12A C13A,1.07
18,U8C G9A U10A U11C C13G,1.04
19,U7A U8C G9C U10C U11A C12G C13A,1.03
20,U7A U8C U10G U11A C12A C13A,1.28
21,U7G U8G G9A U11G C12A C13A,0.999
22,U7C G9U U10A U11A C12A C13U,1.18
23,U7C U8G U10G C12G C13G,1.14
24,U7C U8A G9A U10A U11A C12G,1.23

row,Variant,aptazyme ON/OFF ratio
1,U7C G9C U10G U11C C12U C13A,1.12
2,U10G U11A C12G C13U,1.33
3,U8C G9C U10C C12U,1.07
4,U7C U8C G9U U10G U11G C12G C13A,1.1
5,U7G U8G G9A U11C C12A,1.5
6,U7A U8C G9C U10G U11G C13A,1.12
7,U8A G9A U10A U11A C12U C13A,1.37
8,U7A U8G G9A C12G C13U,1.37
9,U7G U8C U10C U11G C13G,1.26
10,U7A U8G G9C U10A U11G C12A C13U,1.16
11,U7A U8G U10G C12G C13U,1.21
12,U7G U8A U11G C12G C13G,1.32
13,U7C U8G G9C U11C C12G C13U,1.27
14,G9A U10C U11C C12A C13G,1.18
15,U7G U8G G9A U10C U11C C12U C13A,1.04
16,U8G U10A U11C C13U,1.03
17,U8G G9A U10A U11G C12A C13U,1.27
18,U7A U8A G9U U10G U11A C12A C13G,1.09
19,U7C U8C G9A U10G U11C C12G,1.12
20,U7G U8C U10C U11C C12U C13A,1.08
21,U7A U8G G9A U11A C12A C13G,1.21
22,U7A U8G G9C U10C,2.58
23,U8G G9A U11A C12A C13A,1.19
24,U8C G9U U10A U11C C12U C13G,1.09

row,Variant,aptazyme ON/OFF ratio
1,U7G G9A U11A C12A C13G,1.09
2,U7G U8A G9C U10G U11A C13U,1.03
3,U7C G9C U10G U11G C12A C13A,1.08
4,U7A G9U U10A C12G C13A,1.25
5,U7C U8A U10A C12A C13G,1.21
6,U7C U8C G9U U10A,1.13
7,U7A U8C G9A U10A U11G C12G C13U,1.11
8,U7G U8C G9U U10A U11G C12U C13U,1.16
9,U7C G9A U10C U11C C12G C13G,1.12
10,U7C U8C G9C U10A C12G C13U,1.1
11,U7C U8C G9C U10C C12U C13U,1.09
12,U7G U8G G9A C12A C13U,1.49
13,U7C U10A U11A C13U,1.19
14,U8A G9U U11A C13U,1.24
15,U8C G9C U10C U11C C13U,0.96
16,U7C U8A G9U U10C U11C C12U C13A,1.03
17,U7C U8A G9A U10G C12U C13A,1.26
18,G9C U11C C12U C13U,1.14
19,U8C G9C U10C U11A C13G,1.08
20,U7C U8A U11C C12G C13G,1.26
21,U7C U8G G9U U10A U11G C13U,1.28
22,U8G U10G U11C C13G,1.02
23,U8C G9U U10A U11G C12A C13G,1.13
24,U8G G9U U11G C12A C13G,1.19

row,Variant,aptazyme ON/OFF ratio
1,U7C U8A G9C U10A C12U,1.22
2,U7A U8A U10A U11G C12G C13A,0.986
3,U7A U8A U10A U11A C12U C13U,1.14
4,U7G U8A G9A U10G U11C,1.03
5,U7C U8C G9A C13U,1.83
6,U7G G9A U11A C12A,1.12
7,U8A G9U U10C U11A C12G C13A,1.15
8,U8A G9A U11A C13U,1.16
9,U7A U8G G9A U10A C12G,1.53
10,G9A U10C U11C C13U,1.01
11,U7C G9C U11C C12A C13A,1.02
12,U7A G9C C13A,1.02
13,U8G G9C U10A U11C C13U,1.03
14,U7A U8A G9A U10G U11A C13G,1.03
15,U7A G9A U10G C12A C13G,1.15
16,U8C G9A C12U C13U,1.25
17,U7G U8C G9A U10C C12A C13G,1.14
18,U7G U8G G9U U10A U11C C12A C13U,1.17
19,U7A U8G G9C U10G U11G C12G C13U,1.14
20,U7A U8G U10G U11C C12G,1.14
21,U7G U8G U10C U11A C12G C13G,1.23
22,U7G G9C U10G C12A,1.65
23,U7A U8G G9U U11A C13G,1.25
24,G9C U10G C12G C13U,1.05

row,Variant,aptazyme ON/OFF ratio
1,G9A U10C U11G C12A C13U,1.21
2,U7A U8G G9A U10C U11C C13U,1.03
3,U7C U8G G9A U10A C13G,1.05
4,U7A C13A,1.47
5,U7G U8G U10C U11A C12A,1.34
6,U8G G9U U10A U11C C13U,1.01
7,U7G G9A U10A C12A,1.2
8,U8G G9C U11A C12U C13U,1.1
9,U7A U10A U11C C12G C13A,1.08
10,U7A U8G G9A C12A C13A,1.41
11,U7C U8A G9U U10G C12U,1.41
12,U7C U8G G9U U10C C13A,1.15
13,U7A U10A,1.11
14,U7G G9C U10A C13U,1.16
15,U7C U8A G9C U10C U11A C12G C13A,1.1
16,U7C U8C G9A U10A C12A,1.44
17,U7C U8A G9A U10A U11G C13U,1.25
18,U7G U8A G9C U10C U11G,1.05
19,U7G U8A G9U U10G C12G C13G,1.07
20,U7G U8C U10C U11C C12A C13A,1.27
21,U8C U10C C12A C13A,1.33
22,U7A G9A U10A U11A C13A,1.15
23,U7A U8G G9C U10A U11A C12A C13A,1.5
